# Earlier results as cited in patent US7449311B2, “Method of producing macedocin by culturing Streptococcus macedonicus” (Vrije Universiteit Brussel, priority 2001, dated 2008).
# Where two headings read alike, the source gives them in different places.
substance,measurement,setting,value
SA-FF22: lantibiotic isolated from pathogenic Streptococcus pyogenes FF22 (SEQ ID NO 2) (GKNGVFKTISHECHLNTWAFLATCCS; Streptococcus pyogenes),loss of activity,"at a pH of 7 (Tagg et al., 1978)",50%
same,loss of activity,"stored for 4 weeks at room temperature (Tagg et al., 1973)",75%
